Source: patent US11566081B2, “Anti-acetaminophen antibodies and acetaminophen protein adducts” (BioVentures, LLC, priority 2014, dated 2023)

B1: 22-8: rabbit monoclonal antibody to acetaminophen-protein adduct, immunogen CP-2IT-APAP; light chain SEQ ID NO:15, heavy chain SEQ ID NO:16 (antibody)
heavy: METGLRWLLLVAVLKGVQCQSLEESGGRLVTPGGSLTLTCTASGLTINNYYIIWVRQAPGKGLKYIGITYGGGFAYYASWAKGRFTISRTSTTVDLKMTSLTAEDTATYFCVRAAAGGAYDLWGQGTLVTVSSGQPKAPSVFPLAPCCGDTPSSTVTLGCLVKGYLPEPVTVTWNSGTLTNGVRTFPSVRQSSGLYSLSSVVSVTSSSQPVTCNVAHPATNTKVDKTVAPSTCSKPTCPPPELLGGPSVFIFPPKPKDTLMISRTPEVTCVVVDVSQDDPEVQFTWYINNEQVRTARPPLREQQFNSTIRVVSTLPIAHQDWLRGKEFKCKVHNKALPAPIEKTISKARGQPLEPKVYTMGPPREELSSRSVSLTCMINGFYPSDISVEWEKNGKAEDNYKTTPAVLDSDGSYFLYSKLSVPTSEWQRGDVFTCSVMHEALHNHYTQKSISRSPGK
light: MDTRAPTQLLGLLLLWLPGATFAIEMTQTPSPVSAVVGGTVTINCQSSQNVFRKNYLSWFQQKPGQPPKLLISYIDSLTSGVPSRFSGSGAGTQFTLTISDVQCDDAATYYCLGVDGSANDATFGGGTEVVVEGDPVAPTVLIFPPAADQVATGTVTIVCVANKYFPDVTVTWEVDGTTQTTGIENSKTPQNSADCTYNLSSTLTLTSTQYNSHKEYTCKVTQGTTSVVQSFNRGDC
B2: 14-12: rabbit monoclonal antibody to acetaminophen-protein adduct, immunogen CP-2IT-APAP; light chain SEQ ID NO:13, heavy chain SEQ ID NO:14 (antibody)
heavy: METGLRWLLLVAVLKGVQCQSVEESGGRLVTPGTPLTLTCTVSGFSINAYGINWVRQAPGKGLEYIGFSAPHTASYARWTKGRFTMSRTSTTVDLRMTSPTTEDTATYFCARYDRGGMVFNLWGQGTLVTVSSGQPKAPSVFPLAPCCGDTPSSTVTLGCLVKGYLPEPVTVTWNSGTLTNGVRTFPSVRQSSGLYSLSSVVSVTSSSQPVTCNVAHPATNTKVDKTVAPSTCSKPTCPPPELLGGPSVFIFPPKPKDTLMISRTPEVTCVVVDVSQDDPEVQFTWYINNEQVRTARPPLREQQFNSTIRVVSTLPIAHQDWLRGKEFKCKVHNKALPAPIEKTISKARGQPLEPKVYTMGPPREELSSRSVSLTCMINGFYPSDISVEWEKNGKAEDNYKTTPAVLDSDGSYFLYSKLSVPTSEWQRGDVFTCSVMHEALHNHYTQKSISRSPGK
light: MDTRAPTQLLGLLLLWLPGATFALVMTQTPSSVPAAVGGTVTIGCQASQSISRQVSWYQQKPGQPPKLLIYRASTLASGVSSRFKGSGSGTEFTLTISGVQCDDAATYYCLGIVTDRIADGLAFGGGTEVVVKGDPVAPTVLIFPPAADQVATGTVTIVCVANKYFPDVTVTWEVDGTTQTTGIENSKTPQNSADCTYNLSSTLTLTSTQYNSHKEYTCKVTQGTTSVVQSFNRGDC

Tested on: acetaminophen protein adduct (BSA-APAP, 3-(cystein-S-yl)acetaminophen)
Assay: Competitive ELISA: relative inhibitory potency of APAP-protein adduct (BSA-APAP) versus free APAP
Format: binding
Settings: inhibitors BSA-APAP vs APAP on a molar basis, clone supernatant final dilution 1:500
Source text: Tissue culture supernatants from Rabbit monoclonal antibody clone 14-12 at a dilution of 1:250 was mixed with serial 4-fold dilutions of inhibitor (either BSA-APAP or APAP) such that the final dilution of RmAb was 1:500. The final concentrations of APAP were 80, 20, 5, 1.25, and 0.31 nmole per ELISA well. The final concentrations of APAP-BSA (quantified by HPLC-EC as APAP-Cys from the hydrolyzed protein) were 10, 2.5, 0.625, 0.156, and 0.04 pmole per ELISA well.
Synthetically prepared acetaminophen-protein adduct (BSA-APAP) and free drug (APAP) were evaluated in competitive ELISA to determine their relative capacity, on a molar basis, to inhibit the binding of clone 14-12 rabbit monoclonal antibody to solid-phase immobilized acetaminophen protein adduct. […] Restated, clone 14-12 antibody has approximately 8000 times more affinity for acetaminophen protein adduct than it does for free APAP as measured in this ELISA context.
The competitive ELISA was repeated with rabbit monoclonal antibody (RMAb) 14-12 and rabbit monoclonal antibody (RMAb) 22-8. […] After incubation and washing, bound RMAb was detected using Goat anti-Rabbit-IgG conjugated to HRP followed by the substrate TMB and color development was determined using an ELISA plate reader. […]

Row | Molecule | times more affinity for acetaminophen protein adduct than for free APAP
1 | B1 | approximately 1250 times
2 | B2 | approximately 8000 times
